Experimental data published in paper PMC9127583 (iScience, 2022).

Biological target: full-length Hsp70 (UniProt P0DMV8 1-641)
Assay: NMR titration

Chain of full-length Hsp70 (P0DMV8 whole entry): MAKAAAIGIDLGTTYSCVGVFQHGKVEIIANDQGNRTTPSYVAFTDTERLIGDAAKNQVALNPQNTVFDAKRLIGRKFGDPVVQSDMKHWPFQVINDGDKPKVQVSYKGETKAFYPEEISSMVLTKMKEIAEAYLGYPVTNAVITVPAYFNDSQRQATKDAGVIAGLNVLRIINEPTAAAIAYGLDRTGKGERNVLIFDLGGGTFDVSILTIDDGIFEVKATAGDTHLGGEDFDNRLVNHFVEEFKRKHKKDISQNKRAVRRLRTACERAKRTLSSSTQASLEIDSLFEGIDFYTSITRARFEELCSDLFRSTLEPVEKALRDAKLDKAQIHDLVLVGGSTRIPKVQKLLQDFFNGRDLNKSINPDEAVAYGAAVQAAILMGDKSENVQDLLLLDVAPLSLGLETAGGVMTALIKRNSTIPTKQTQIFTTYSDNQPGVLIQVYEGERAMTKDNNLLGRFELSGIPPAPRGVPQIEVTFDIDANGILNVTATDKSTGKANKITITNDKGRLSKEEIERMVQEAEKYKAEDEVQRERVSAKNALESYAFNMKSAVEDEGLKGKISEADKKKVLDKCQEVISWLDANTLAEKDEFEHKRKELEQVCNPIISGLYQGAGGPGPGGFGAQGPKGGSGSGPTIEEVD

B1: FUS-LC (residues 1-163) (domain or fragment, UniProt P35637 1-163, looked up)
chain: MASNDYTQQATQSYGAYPTQPGQGYSQQSSQPYGQQSYSGYSQSTDTSGYGQSSYSSYGQSQNTGYGTQSTPQGYGSTGGYGSSQSSQSSYGQQSSYPGYGQQPAPSSTSGSYGSSSQSSSYGQPQSGSYSQQPSYGGQQQSYGQQQSYNPPQGYGQQNQYNS
B1: binds.
